One data set concerns the target MNK2 (Homo sapiens, UniProt Q9HBH9). Description: Kinase panel residual activity. The conditions noted are these: compound at 1 micromolar. The class given is biochemical.
A further data set deals with T1, ULK2 (Homo sapiens, UniProt Q8IYT8).
T1 sequence (Q8IYT8 1-1036): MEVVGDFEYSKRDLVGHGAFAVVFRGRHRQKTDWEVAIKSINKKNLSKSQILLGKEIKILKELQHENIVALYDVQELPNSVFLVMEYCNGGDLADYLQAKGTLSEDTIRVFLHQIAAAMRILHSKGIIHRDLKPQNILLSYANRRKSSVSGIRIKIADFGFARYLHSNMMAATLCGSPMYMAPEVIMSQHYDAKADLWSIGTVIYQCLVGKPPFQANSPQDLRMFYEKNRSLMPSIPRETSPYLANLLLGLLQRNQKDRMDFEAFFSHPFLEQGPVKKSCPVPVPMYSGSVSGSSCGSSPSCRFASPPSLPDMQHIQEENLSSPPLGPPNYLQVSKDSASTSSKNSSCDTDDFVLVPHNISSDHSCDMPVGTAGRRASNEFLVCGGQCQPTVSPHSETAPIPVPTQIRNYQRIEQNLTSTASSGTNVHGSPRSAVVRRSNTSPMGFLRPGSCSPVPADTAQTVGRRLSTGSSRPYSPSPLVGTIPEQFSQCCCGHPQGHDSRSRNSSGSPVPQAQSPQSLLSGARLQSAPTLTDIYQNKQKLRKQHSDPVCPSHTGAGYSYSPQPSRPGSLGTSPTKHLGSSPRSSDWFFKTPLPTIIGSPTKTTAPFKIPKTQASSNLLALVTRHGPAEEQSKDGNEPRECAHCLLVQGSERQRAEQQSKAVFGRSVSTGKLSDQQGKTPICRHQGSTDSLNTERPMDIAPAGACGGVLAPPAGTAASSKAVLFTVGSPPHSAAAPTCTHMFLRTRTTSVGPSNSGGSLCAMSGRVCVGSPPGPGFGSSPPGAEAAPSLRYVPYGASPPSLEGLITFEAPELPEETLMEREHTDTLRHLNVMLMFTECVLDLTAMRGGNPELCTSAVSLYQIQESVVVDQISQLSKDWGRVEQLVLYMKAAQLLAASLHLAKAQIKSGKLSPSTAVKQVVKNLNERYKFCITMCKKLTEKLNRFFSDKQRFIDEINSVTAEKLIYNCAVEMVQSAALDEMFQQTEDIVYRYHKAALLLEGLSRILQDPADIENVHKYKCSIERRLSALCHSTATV
Description: Kinase panel residual activity. The class given is biochemical. The conditions noted are these: compound at 1 micromolar.

The structures appear in SMILES notation. Where a SMILES comes first, the peptide text is derived from it. [ ]: non-standard residue; d: D form. The star is where a group is joined. X1 = O=C(CCCCCCCn1cnc2c(Br)c(Br)c(Br)c(Br)c21)*

Sequence of MNK2 (Q9HBH9 whole entry, species assumed): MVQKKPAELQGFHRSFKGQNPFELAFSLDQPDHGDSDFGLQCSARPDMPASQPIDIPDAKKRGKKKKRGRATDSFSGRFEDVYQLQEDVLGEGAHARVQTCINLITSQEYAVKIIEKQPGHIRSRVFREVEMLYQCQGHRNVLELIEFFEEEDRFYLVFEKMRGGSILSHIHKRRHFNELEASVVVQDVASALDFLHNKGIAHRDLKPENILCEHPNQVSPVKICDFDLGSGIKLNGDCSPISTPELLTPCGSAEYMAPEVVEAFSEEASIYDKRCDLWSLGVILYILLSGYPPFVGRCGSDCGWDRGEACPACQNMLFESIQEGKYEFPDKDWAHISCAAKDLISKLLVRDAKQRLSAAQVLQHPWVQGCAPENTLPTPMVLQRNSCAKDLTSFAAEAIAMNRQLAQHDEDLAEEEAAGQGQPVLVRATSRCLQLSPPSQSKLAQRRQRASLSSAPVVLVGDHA

With `NCCCC[C@H](NC(=O)[C@H](CC(=O)O)NC(=O)[C@H](CC(=O)O)NC(=O)[C@H](CC(=O)O)NC(=O)[C@H](CC(=O)O)NC(=O)[C@H](CC(=O)O)NC(=O)[C@@H](CC(=O)O)NC(=O)CCCCCCCn1cnc2c(Br)c(Br)c(Br)c(Br)c21)C(=O)O` [TBBI-OcA-(D-Asp)-(L-Asp)5-(L-Lys)-OH] (X1-[dD]DDDDDK-OH), the remaining activity at 1 µM stood at 89% with MNK2 and 110% in the data set with ULK2.

As a reminder, the remaining activity is the signal under treatment as a percentage of the control signal.

For the origin of these results see US9176064B2, “Bisubstrate fluorescent probes for protein kinase CK2” (University of Tartu, priority 2012, dated 2015).
